Experiment [1] addresses membrane-bound HLA-G*01:03 on K562 cells (human). As to the kind of experiment: flow cytometry on cells; 1 x 10^6 K562 cells presenting HLA-G*01:0x incubated with 200 nM purified sNKG2A/CD94 or sNKG2C/CD94 for 2 h at 37 °C; detection by anti-V5-tag antibody and PE-coupled secondary antibody; three technical replicates. In general terms: Flow cytometry measures light scatter and fluorescence of single cells or particles in a stream.

The target of experiment [2] is membrane-bound HLA-G*01:04 on K562 cells (human). Described as above.

As to “recombinant soluble heterodimeric NKG2A/CD94 (from UniProt P26715 1-233; Q13241 1-179) (complex)”, the percent binding (flow cytometry) in experiment [1] is 17.4%; in experiment [2], 57.7%.

The values are drawn from article PMC7352787.
